The target in one series is T1, c-Met-Fc fusion protein (Homo sapiens, UniProt P08581).
T1 construct: recombinant EGFR and/or c-Met extracellular domain
Description: c-Met-Fc affinity by surface plasmon resonance (Proteon). It is filed as binding. Conditions: for binding to c-Met (in words): SPR, serine mutants in ECB15; for ka / kd / Kd: serine mutants of A3 in the context of ECB15; for Kd: read-out: KD. (In general: In SPR one partner is held on a chip, and binding of the other changes the refractive index at the surface.)

Series [1] can be described thus: Differential scanning calorimetry in PBS (thermal stability). Conditions: DSC in PBS, c-Met-binding FN3 domains. Type of series: physicochemical.

This note sets out measurements from patent US12304939B2, “EGFR and C-met fibronectin type III domain binding molecules” (Janssen Biotech, Inc., priority 2012, dated 2025).

Like-named read-outs stand apart in the source and are kept apart here.

T1 sequence (P08581 25-932 limits assumed): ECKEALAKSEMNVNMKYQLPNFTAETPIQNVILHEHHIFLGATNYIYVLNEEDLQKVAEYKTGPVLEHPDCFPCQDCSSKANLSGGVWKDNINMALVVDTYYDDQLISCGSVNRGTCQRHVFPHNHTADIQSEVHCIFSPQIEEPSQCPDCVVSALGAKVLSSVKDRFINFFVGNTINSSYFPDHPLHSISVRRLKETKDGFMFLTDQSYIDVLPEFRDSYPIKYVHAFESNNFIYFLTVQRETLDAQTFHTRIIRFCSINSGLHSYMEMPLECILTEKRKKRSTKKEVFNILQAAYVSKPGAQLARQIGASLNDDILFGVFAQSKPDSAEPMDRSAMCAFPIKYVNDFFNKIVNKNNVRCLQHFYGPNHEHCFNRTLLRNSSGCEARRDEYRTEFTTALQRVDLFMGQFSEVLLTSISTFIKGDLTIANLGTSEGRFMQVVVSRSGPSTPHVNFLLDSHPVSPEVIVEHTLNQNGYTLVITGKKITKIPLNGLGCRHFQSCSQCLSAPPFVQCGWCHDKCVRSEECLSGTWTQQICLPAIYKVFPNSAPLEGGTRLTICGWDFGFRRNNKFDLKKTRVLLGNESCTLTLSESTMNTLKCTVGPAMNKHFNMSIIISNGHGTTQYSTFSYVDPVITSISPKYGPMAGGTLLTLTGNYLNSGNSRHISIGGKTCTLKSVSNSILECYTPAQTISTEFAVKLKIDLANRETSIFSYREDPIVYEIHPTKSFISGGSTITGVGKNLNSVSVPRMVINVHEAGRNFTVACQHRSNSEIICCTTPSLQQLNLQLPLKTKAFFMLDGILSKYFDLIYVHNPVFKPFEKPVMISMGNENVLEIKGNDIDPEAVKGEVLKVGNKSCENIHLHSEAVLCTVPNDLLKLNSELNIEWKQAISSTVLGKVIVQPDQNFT

B1: A3 M72S: serine mutant of A3 c-Met domain in ECB15 context, SEQ ID NO: 220 (protein)
chain: LPAPKNLVVSRVTEDSARLSWTAPDAAFDSFWIRYFEFLGSGEAIVLTVPGSERSYDLTGLKPGTEYVVNISGVKGGKISPPLSAIFTT
modifications: c-Met binding FN3 domain
On to B1, for which the “binding to c-Met (in words)” value with c-Met-Fc fusion protein was “No binding was measurable”.

B2: A3 W32S: serine mutant of A3 c-Met domain in ECB15 context, SEQ ID NO: 219 (protein)
chain: LPAPKNLVVSRVTEDSARLSWTAPDAAFDSFSIRYFEFLGSGEAIVLTVPGSERSYDLTGLKPGTEYVVNIMGVKGGKISPPLSAIFTT
modifications: c-Met binding FN3 domain
What is called Kd is the free concentration of one partner at which half of the binding sites on the other are occupied at equilibrium, for simple one-to-one binding. On to B2, for which, in the series with c-Met-Fc fusion protein, the “Fold Change of KD compared to parent” value is 74.5, the ka was determined as 289000 M⁻¹ s⁻¹, the kd was 0.0086 s⁻¹ and the dissociation constant (Kd) came to 29.8 nM.

B3: A3 G40S: serine mutant of A3 c-Met domain in ECB15 context, SEQ ID NO: 213 (protein)
chain: LPAPKNLVVSRVTEDSARLSWTAPDAAFDSFWIRYFEFLSSGEAIVLTVPGSERSYDLTGLKPGTEYVVNIMGVKGGKISPPLSAIFTT
modifications: c-Met binding FN3 domain
Take B3: in the series with c-Met-Fc fusion protein, the “Fold Change of KD compared to parent” value stood at 4.25, the ka came out at 185000 M⁻¹ s⁻¹, the kd amounted to 0.00032 s⁻¹ and the Kd came to 1.7 nM.

B4: A3 L39S: serine mutant of A3 c-Met domain in ECB15 context, SEQ ID NO: 214 (protein)
chain: LPAPKNLVVSRVTEDSARLSWTAPDAAFDSFWIRYFEFSGSGEAIVLTVPGSERSYDLTGLKPGTEYVVNIMGVKGGKISPPLSAIFTT
modifications: c-Met binding FN3 domain
With B4, in the series with c-Met-Fc fusion protein, the “Fold Change of KD compared to parent” value is 6.75, the ka worked out at 475000 M⁻¹ s⁻¹, the kd was determined as 0.00127 s⁻¹ and the Kd was 2.7 nM.

B5: A3 R34S: serine mutant of A3 c-Met domain in ECB15 context, SEQ ID NO: 221 (protein)
chain: LPAPKNLVVSRVTEDSARLSWTAPDAAFDSFWISYFEFLGSGEAIVLTVPGSERSYDLTGLKPGTEYVVNIMGVKGGKISPPLSAIFTT
modifications: c-Met binding FN3 domain
For the molecule B5, the “binding to c-Met (in words)” value with c-Met-Fc fusion protein is “No binding was measurable”.

B6: A3 V68S: serine mutant of A3 c-Met domain in ECB15 context, SEQ ID NO: 215 (protein)
chain: LPAPKNLVVSRVTEDSARLSWTAPDAAFDSFWIRYFEFLGSGEAIVLTVPGSERSYDLTGLKPGTEYSVNIMGVKGGKISPPLSAIFTT
modifications: c-Met binding FN3 domain
On to B6, for which, in the series with c-Met-Fc fusion protein, the “Fold Change of KD compared to parent” value amounted to 9, the ka is 329000 M⁻¹ s⁻¹, the kd came out at 0.0012 s⁻¹ and the dissociation constant (Kd) amounted to 3.6 nM.

B7: P114AR7P95-D4: c-Met-binding FN3 domain, SEQ ID NO: 45 (protein)
chain: LPAPKNLVVSRVTEDSARLSWTAPDAAFDSFWIRYFEFLGSGEAIVLTVPGSERSYDLTGLKPGTEYVVQILGVKGGYISIPLSAIFTT
modifications: c-Met binding FN3 domain
In the case of B7, the “Thermal Stability (Tm)” value in series [1] is listed as 85.3 C.

B8: A3 I79S: serine mutant of A3 c-Met domain in ECB15 context, SEQ ID NO: 223 (protein)
chain: LPAPKNLVVSRVTEDSARLSWTAPDAAFDSFWIRYFEFLGSGEAIVLTVPGSERSYDLTGLKPGTEYVVNIMGVKGGKSSPPLSAIFTT
modifications: c-Met binding FN3 domain
As for B8, in the series with c-Met-Fc fusion protein, the “binding to c-Met (in words)” value is recorded as “No binding was measurable”.

B9: P114AR7P92-H5: c-Met-binding FN3 domain, SEQ ID NO: 37 (protein)
chain: LPAPKNLVVSRVTEDSARLSWTAPDAAFDSFWIRYLEFLLGGEAIVLTVPGSERSYDLTGLKPGTEYVVQIMGVKGGTVSPPLSAIFTT
modifications: c-Met binding FN3 domain
Consider B9, for which the “Thermal Stability (Tm)” value in series [1] is listed as 87 C.

B10: A3 P81S: serine mutant of A3 c-Met domain in ECB15 context, SEQ ID NO: 217 (protein)
chain: LPAPKNLVVSRVTEDSARLSWTAPDAAFDSFWIRYFEFLGSGEAIVLTVPGSERSYDLTGLKPGTEYVVNIMGVKGGKISSPLSAIFTT
modifications: c-Met binding FN3 domain
In the case of B10, in the series with c-Met-Fc fusion protein, the “Fold Change of KD compared to parent” value turned out to be 4.25, the ka came to 321000 M⁻¹ s⁻¹, the kd turned out to be 0.000536 s⁻¹ and the Kd stood at 1.7 nM.

B11: P114AR7P95-F10: c-Met-binding FN3 domain, SEQ ID NO: 47 (protein)
chain: LPAPKNLVVSRVTEDSARLSWTAPDAAFDSFWIRYFEFTTAGEAIVLTVPGSERSYDLTGLKPGTEYVVNIMGVKGGSISPPLSAIFTT
modifications: c-Met binding FN3 domain
In the case of B11, the “Thermal Stability (Tm)” value in series [1] is on record as 85.2 C.

B12: A3 F38S: serine mutant of A3 c-Met domain in ECB15 context, SEQ ID NO: 222 (protein)
chain: LPAPKNLVVSRVTEDSARLSWTAPDAAFDSFWIRYFESLGSGEAIVLTVPGSERSYDLTGLKPGTEYVVNIMGVKGGKISPPLSAIFTT
modifications: c-Met binding FN3 domain
Regarding B12, in the series with c-Met-Fc fusion protein, the “Fold Change of KD compared to parent” value is on record as 1792.5, the ka stood at 45100 M⁻¹ s⁻¹, the kd amounted to 0.0323 s⁻¹ and the Kd was found to be 717 nM. The “Fold Change of KD compared to parent” value with c-Met-Fc fusion protein (listed as F38S) is recorded as “greater than 100”.

B13: P114AR7P92-G8: c-Met-binding FN3 domain, SEQ ID NO: 36 (protein)
chain: LPAPKNLVVSRVTEDSARLSWTAPDAAFDSFVIRYFEFLGSGEAIVLTVPGSERSYDLTGLKPGTEYVVQILGVKGGYISIPLSAIFTT
modifications: c-Met binding FN3 domain
B13: in series [1], the “Thermal Stability (Tm)” value is given as 90.9 C.

B14: P114AR7P94-E5: c-Met-binding FN3 domain, SEQ ID NO: 42 (protein)
chain: LPAPKNLVVSRVTEDSARLSWTAPDAAFDSFWIRYFEFLGSGEAIVLTVPGSERSYDLTGLKPGTEYAVNIMGVKGGRVSVPLSAIFTT
modifications: c-Met binding FN3 domain
Turning to B14, in series [1], the “Thermal Stability (Tm)” value is listed as 80 C.

B15: A3 K78S: serine mutant of A3 c-Met domain in ECB15 context, SEQ ID NO: 212 (protein)
chain: LPAPKNLVVSRVTEDSARLSWTAPDAAFDSFWIRYFEFLGSGEAIVLTVPGSERSYDLTGLKPGTEYVVNIMGVKGGSISPPLSAIFTT
modifications: c-Met binding FN3 domain
In the case of B15, in the series with c-Met-Fc fusion protein, the “Fold Change of KD compared to parent” value is recorded as 0.75, the ka came out at 440000 M⁻¹ s⁻¹, the kd was 0.00015 s⁻¹ and the Kd came out at 0.3 nM.

B16: P114AR7P95-G7: c-Met-binding FN3 domain, SEQ ID NO: 48 (protein)
chain: LPAPKNLVVSRVTEDSARLSWTAPDAAFDSFWIRYFELLSTGEAIVLTVPGSERSYDLTGLKPGTEYVVNIMGVKGGSISPPLSAIFTT
modifications: c-Met binding FN3 domain
Take B16: the “Thermal Stability (Tm)” value in series [1] is listed as 87.2 C.

B17: A3 F36S: serine mutant of A3 c-Met domain in ECB15 context, SEQ ID NO: 218 (protein)
chain: LPAPKNLVVSRVTEDSARLSWTAPDAAFDSFWIRYSEFLGSGEAIVLTVPGSERSYDLTGLKPGTEYVVNIMGVKGGKISPPLSAIFTT
modifications: c-Met binding FN3 domain
Regarding B17, in the series with c-Met-Fc fusion protein, the “Fold Change of KD compared to parent” value is 68, the ka amounted to 188000 M⁻¹ s⁻¹, the kd was 0.00512 s⁻¹ and the Kd came out at 27.2 nM.

B18: A3 N70S: serine mutant of A3 c-Met domain in ECB15 context, SEQ ID NO: 216 (protein)
chain: LPAPKNLVVSRVTEDSARLSWTAPDAAFDSFWIRYFEFLGSGEAIVLTVPGSERSYDLTGLKPGTEYVVSIMGVKGGKISPPLSAIFTT
modifications: c-Met binding FN3 domain
With B18, in the series with c-Met-Fc fusion protein, the “Fold Change of KD compared to parent” value amounted to 14.75, the ka came to 425000 M⁻¹ s⁻¹, the kd was found to be 0.00249 s⁻¹ and the Kd worked out at 5.9 nM.

B19: P114AR7P94-A3: c-Met-binding FN3 domain, SEQ ID NO: 41 (protein)
chain: LPAPKNLVVSRVTEDSARLSWTAPDAAFDSFWIRYFEFLGSGEAIVLTVPGSERSYDLTGLKPGTEYVVNIMGVKGGKISPPLSAIFTT
modifications: c-Met binding FN3 domain
Take B19: the “Thermal Stability (Tm)” value in series [1] was 86.2 C.

B20: P114AR7P93-H9: c-Met-binding FN3 domain, SEQ ID NO: 40 (protein)
chain: LPAPKNLVVSRVTEDSARLSWTAPDAAFDSFWIRYFEFLGSGEAIVLTVPGSERSYDLTGLKPGTEYVVQIIGVKGGHISLPLSAIFTT
modifications: c-Met binding FN3 domain
Consider B20, for which the “Thermal Stability (Tm)” value in series [1] is 88.2 C.

B21: P114AR7P93-G8: c-Met-binding FN3 domain, SEQ ID NO: 39 (protein)
chain: LPAPKNLVVSRVTEDSARLSWTAPDAAFDSFWIRYFEFLGSGEAIVLTVPGSERSYDLTDLKPGTEYGVTINGVKGGRVSTPLSAIFTT
modifications: c-Met binding FN3 domain
Take B21: the “Thermal Stability (Tm)” value in series [1] is 76.8 C.
